Among the data in the RNAGym collection of RNA variant scans (doi:10.7554/elife.90254) are self-cleavage values, retold here.

B1: LINE1-full (parent)
chain: UACGUAGGUGGUUUUCCCCUGAUAGUGCUAAGGGGGCCUGGAAGUUUGGACUGGGCAGAGCUCAACACAGCGUGGCAAAGUGGCUGUGGCUAGACUGCCUCUCUGGAUUCCUCGUCACUCAGCAGGGCAUCUCUGAGAGAAAUGCC

This series covers variants of B1. Put plainly: self-cleavage, relative activity (ratio to wild type); higher = more cleavage; in vitro, sequencing; the parent is a self-cleaving ribozyme.
With UACGUAGGUGGUUUUCCCCUGAUAGUGCUAAGGGGGCCUGGAAGUUUGGACUGGGCAGAGCUCAACACAGCGUGGCAAAGUGGCUGUGGCUAGACUGCCUCUCUGGAUUCCUCGUCGCUCAGCAGGGCAUCUCUGAGAUAAAUGCC, the self-cleavage turned out to be 2.05. As to UACGUAGGUGGUUUUCCCCUGAUAGUGCUAAGGGGGCCUGGAAGUUUGGACUGGGCAGAGCUCAACACAGCGUGGCAAAGUGGCUGUGGCUAGACUGCCUCUCUGGAUUCCUCGUCGCUCAGCAGGGCAUCUUUGAGAGAAAUGCC, the self-cleavage stood at 2.55.

With UACGUAGGUGGUUUUCCCCUGAUAGUGCUAAGGGGGCCUGGAAGUUUGGACUGGGCAGAGCUCAACACAGCGUGGCAAAGUGGCUGUGGCUAGACUGCCUCUCUGGAUUCCUCGUCUCUCGGCAGGGCAUCUCUGAGAGAAAUGCC, the self-cleavage is 1.81. On to UACGUAGGUGGUUUUCCCCUGAUAGUGCUAAGGGGGCCUGGAAGUUUGGACUGGGCAGAGCUCAACACAGCGUGGCAAAGUGGCUGUGGCUAGACUGCCUCUCUGGAUUCCUCGUCUCUCUGCAGGGCAUCUCUGAGAGAAAUGCC, for which the self-cleavage stood at 1.57. To UACGUAGGUGGUUUUCCCCUGAUAGUGCUAAGGGGGCCUGGAAGUUUGGACUGGGCAGAGCUCAACACAGCGUGGCAAAGUGGCUGUGGCUAGACUGCCUCUCUGGAUUCCUCGUCGCUCAGCAGGGCCUCUCUGAGAGAAAUGCC belongs 1.93; to UACGUAGGUGGUUUUCCCCUGAUAGUGCUAAGGGGGCCUGGAAGUUUGGACUGGGCAGAGCUCAACACAGCGUGGCAAAGUGGCUGUGGCUAGACUGCCUCUCUGGAUUCCUCGUCGCUCAGCAGGGCGUCUCUGAGAGAAAUGCC, 1.32.

UACGUAGGUGGUUUUCCCCUGAUAGUGCUAAGGGGGCCUGGAAGUUUGGACUGGGCAGAGCUCAACACAGCGUGGCAAAGUGGCUGUGGCUAGACUGCCUCUCUGGAUUCCUCGUCGCUCAGCAGGGCAUCUCCGAGAGAAAUGCC: the self-cleavage stood at 1.73.

On to UACGUAGGUGGUUUUCCCCUGAUAGUGCUAAGGGGGCCUGGAAGUUUGGACUGGGCAGAGCUCAACACAGCGUGGCAAAGUGGCUGUGGCUAGACUGCCUCUCUGGAUUCCUCGUCGCUCAGCUGGGCAUCUCUGAGAGAAAUGCC, for which the self-cleavage stood at 1.25. To UACGUAGGUGGUUUUCCCCUGAUAGUGCUAAGGGGGCCUGGAAGUUUGGACUGGGCAGAGCUCAACACAGCGUGGCAAAGUGGCUGUGGCUAGACUGCCUCUCUGGAUUCCUCGUCUCUCAGCAGGGCAUCUCUGAGAGAUAUGCC belongs 2.24; to UACGUAGGUGGUUUUCCCCUGAUAGUGCUAAGGGGGCCUGGAAGUUUGGACUGGGCAGAGCUCAACACAGCGUGGCAAAGUGGCUGUGGCUAGACUGCCUCUCUGGAUUCCUCGUCUCUCAGCAGGGCAUCUCUGAGAGAGAUGCC, 1.1; to UACGUAGGUGGUUUUCCCCUGAUAGUGCUAAGGGGGCCUGGAAGUUUGGACUGGGCAGAGCUCAACACAGCGUGGCAAAGUGGCUGUGGCUAGACUGCCUCUCUGGAUUCCUCGUCGCUCAGCAGGGCAUCUCUGAGAGAAAUACC, 0.73. Then UACGUAGGUGGUUUUCCCCUGAUAGUGCUAAGGGGGCCUGGAAGUUUGGACUGGGCAGAGCUCAACACAGCGUGGCAAAGUGGCUGUGGCUAGACUGCCUCUCUGGAUUCCUCGUCUCUCAGCAGGGCAUUUCUGAGAGAAAUGCC, with 1.21; and UACGUAGGUGGUUUUCCCCUGAUAGUGCUAAGGGGGCCUGGAAGUUUGGACUGGGCAGAGCUCAACACAGCGUGGCAAAGUGGCUGUGGCUAGACUGCCUCUCUGGAUUCCUCGUCUCUCAGCAGGGCAUCUCUGACAGAAAUGCC, with 2.13.

Regarding UACGUAGGUGGUUUUCCCCUGAUAGUGCUAAGGGGGCCUGGAAGUUUGGACUGGGCAGAGCUCAACACAGCGUGGCAAAGUGGCUGUGGCUAGACUGCCUCUCUGGAUUCCUCGUCGCCCAGCAGGGCAUCUCUGAGAGAAAUGCC, the self-cleavage was determined as 1.47. Then UACGUAGGUGGUUUUCCCCUGAUAGUGCUAAGGGGGCCUGGAAGUUUGGACUGGGCAGAGCUCAACACAGCGUGGCAAAGUGGCUGUGGCUAGACUGCCUCUCUGGAUUCCUCGUCGCGCAGCAGGGCAUCUCUGAGAGAAAUGCC, with 1.87; and UACGUAGGUGGUUUUCCCCUGAUAGUGCUAAGGGGGCCUGGAAGUUUGGACUGGGCAGAGCUCAACACAGCGUGGCAAAGUGGCUGUGGCUAGACUGCCUCUCUGGAUUCCUCGUCGCACAGCAGGGCAUCUCUGAGAGAAAUGCC, with 1.17; and UACGUAGGUGGUUUUCCCCUGAUAGUGCUAAGGGGGCCUGGAAGUUUGGACUGGGCAGAGCUCAACACAGCGUGGCAAAGUGGCUGUGGCUAGACUGCCUCUCUGGAUUCCUCGUCUCACAGCAGGGCAUCUCUGAGAGAAAUGCC, with 0.99. With UACGUAGGUGGUUUUCCCCUGAUAGUGCUAAGGGGGCCUGGAAGUUUGGACUGGGCAGAGCUCAACACAGCGUGGCAAAGUGGCUGUGGCUAGACUGCCUCUCUGGAUUCCUCGUCUCUCAGCGGGGCAUCUCUGAGAGAAAUGCC, the self-cleavage was 1.3. To UACGUAGGUGGUUUUCCCCUGAUAGUGCUAAGGGGGCCUGGAAGUUUGGACUGGGCAGAGCUCAACACAGCGUGGCAAAGUGGCUGUGGCUAGACUGCCUCUCUGGAUUCCUCGUCUCUCAGCAGGGCACCUCUGAGAGAAAUGCC belongs 1.58; to UACGUAGGUGGUUUUCCCCUGAUAGUGCUAAGGGGGCCUGGAAGUUUGGACUGGGCAGAGCUCAACACAGCGUGGCAAAGUGGCUGUGGCUAGACUGCCUCUCUGGAUUCCUCGUCUCUCAGCAGGGCAACUCUGAGAGAAAUGCC, 1.55. Then UACGUAGGUGGUUUUCCCCUGAUAGUGCUAAGGGGGCCUGGAAGUUUGGACUGGGCAGAGCUCAACACAGCGUGGCAAAGUGGCUGUGGCUAGACUGCCUCUCUGGAUUCCUCGUCUCUCAGCAGGGCAUCUCUGAGAGGAAUGCC, with 1.43; and UACGUAGGUGGUUUUCCCCUGAUAGUGCUAAGGGGGCCUGGAAGUUUGGACUGGGCAGAGCUCAACACAGCGUGGCAAAGUGGCUGUGGCUAGACUGCCUCUCUGGAUUCCUCGUCUCUCAGCAGGGCAUCUCUGAGAGAAAUGCG, with 0.92. Take UACGUAGGUGGUUUUCCCCUGAUAGUGCUAAGGGGGCCUGGAAGUUUGGACUGGGCAGAGCUCAACACAGCGUGGCAAAGUGGCUGUGGCUAGACUGCCUCUCUGGAUUCCUCGUCGCUCAUCAGGGCAUCUCUGAGAGAAAUGCC: the self-cleavage was 1.52. Then UACGUAGGUGGUUUUCCCCUGAUAGUGCUAAGGGGGCCUGGAAGUUUGGACUGGGCAGAGCUCAACACAGCGUGGCAAAGUGGCUGUGGCUAGACUGCCUCUCUGGAUUCCUCGUCGCUUAGCAGGGCAUCUCUGAGAGAAAUGCC, with 2.18. Then UACGUAGGUGGUUUUCCCCUGAUAGUGCUAAGGGGGCCUGGAAGUUUGGACUGGGCAGAGCUCAACACAGCGUGGCAAAGUGGCUGUGGCUAGACUGCCUCUCUGGAUUCCUCGUCUCUCAGCAGUGCAUCUCUGAGAGAAAUGCC, with 1.11; and UACGUAGGUGGUUUUCCCCUGAUAGUGCUAAGGGGGCCUGGAAGUUUGGACUGGGCAGAGCUCAACACAGCGUGGCAAAGUGGCUGUGGCUAGACUGCCUCUCUGGAUUCCUCGUCUCUCAGUAGGGCAUCUCUGAGAGAAAUGCC, with 0.78; and UACGUAGGUGGUUUUCCCCUGAUAGUGCUAAGGGGGCCUGGAAGUUUGGACUGGGCAGAGCUCAACACAGCGUGGCAAAGUGGCUGUGGCUAGACUGCCUCUCUGGAUUCCUCGUCGCUCAGUAGGGCAUCUCUGAGAGAAAUGCC, with 1.48. Then UACGUAGGUGGUUUUCCCCUGAUAGUGCUAAGGGGGCCUGGAAGUUUGGACUGGGCAGAGCUCAACACAGCGUGGCAAAGUGGCUGUGGCUAGACUGCCUCUCUGGAUUCCUCGUCGCUCAGCAGGGCAUCUCUGAGUGAAAUGCC, with 1.13; and UACGUAGGUGGUUUUCCCCUGAUAGUGCUAAGGGGGCCUGGAAGUUUGGACUGGGCAGAGCUCAACACAGCGUGGCAAAGUGGCUGUGGCUAGACUGCCUCUCUGGAUUCCUCGUCGCUCAGCAGGGCAUCUCUGAGGGAAAUGCC, with 1.59. On to UACGUAGGUGGUUUUCCCCUGAUAGUGCUAAGGGGGCCUGGAAGUUUGGACUGGGCAGAGCUCAACACAGCGUGGCAAAGUGGCUGUGGCUAGACUGCCUCUCUGGAUUCCUCGUCGCUCAGCAAGGCAUCUCUGAGAGAAAUGCC, for which the self-cleavage was found to be 0.99.

Regarding UACGUAGGUGGUUUUCCCCUGAUAGUGCUAAGGGGGCCUGGAAGUUUGGACUGGGCAGAGCUCAACACAGCGUGGCAAAGUGGCUGUGGCUAGACUGCCUCUCUGGAUUCCUCGUCGCUCAGCAUGGCAUCUCUGAGAGAAAUGCC, the self-cleavage was 1.47.

Take UACGUAGGUGGUUUUCCCCUGAUAGUGCUAAGGGGGCCUGGAAGUUUGGACUGGGCAGAGCUCAACACAGCGUGGCAAAGUGGCUGUGGCUAGACUGCCUCUCUGGAUUCCUCGUCGCUCAGCAGGGCAUCUCUGAGAGAUAUGCC: the self-cleavage stood at 1.69. To UACGUAGGUGGUUUUCCCCUGAUAGUGCUAAGGGGGCCUGGAAGUUUGGACUGGGCAGAGCUCAACACAGCGUGGCAAAGUGGCUGUGGCUAGACUGCCUCUCUGGAUUCCUCGUCGCUCAGCAGGGCAUCUCUGAGAGAGAUGCC belongs 1.71; to UACGUAGGUGGUUUUCCCCUGAUAGUGCUAAGGGGGCCUGGAAGUUUGGACUGGGCAGAGCUCAACACAGCGUGGCAAAGUGGCUGUGGCUAGACUGCCUCUCUGGAUUCCUCGUCGCUCAGCAGGGCAACUCUGAGAGAAAUGCC, 1.85. Take UACGUAGGUGGUUUUCCCCUGAUAGUGCUAAGGGGGCCUGGAAGUUUGGACUGGGCAGAGCUCAACACAGCGUGGCAAAGUGGCUGUGGCUAGACUGCCUCUCUGGAUUCCUCGUCGCUCAGCAGGGCACCUCUGAGAGAAAUGCC: the self-cleavage is 1.42. To UACGUAGGUGGUUUUCCCCUGAUAGUGCUAAGGGGGCCUGGAAGUUUGGACUGGGCAGAGCUCAACACAGCGUGGCAAAGUGGCUGUGGCUAGACUGCCUCUCUGGAUUCCUCGUCGCUCAGCAGGGCAUCUCUGGGAGAAAUGCC belongs 1.66; to UACGUAGGUGGUUUUCCCCUGAUAGUGCUAAGGGGGCCUGGAAGUUUGGACUGGGCAGAGCUCAACACAGCGUGGCAAAGUGGCUGUGGCUAGACUGCCUCUCUGGAUUCCUCGUCGCUCAGCAGGGCAUCUCUGUGAGAAAUGCC, 1.48; to UACGUAGGUGGUUUUCCCCUGAUAGUGCUAAGGGGGCCUGGAAGUUUGGACUGGGCAGAGCUCAACACAGCGUGGCAAAGUGGCUGUGGCUAGACUGCCUCUCUGGAUUCCUCGUCUCUCAGCAGGGCUUCUCUGAGAGAAAUGCC, 1.78.

As to UACGUAGGUGGUUUUCCCCUGAUAGUGCUAAGGGGGCCUGGAAGUUUGGACUGGGCAGAGCUCAACACAGCGUGGCAAAGUGGCUGUGGCUAGACUGCCUCUCUGGAUUCCUCGUCUCUCAGCAGGGCCUCUCUGAGAGAAAUGCC, the self-cleavage came to 1.23.
